Source: patent US12397061B2, “Systems, methods, and compositions for the generation of water-soluble cannabinoids utilizing fatty-acid binding proteins and fatty-acid binding-like proteins as cannabinoid-carriers” (Trait Biosciences, Inc., priority 2019, dated 2025)

B1: Plant FABP WT: Wild type FABP from the plant Rhodamnia argentea, SEQ ID NO. 77 (protein, listed as Rhodamnia argentea)
chain: MTEFAGVYEFVKDDGKFEEILKAMDVNFLIRKVAGKMNPNTAIDVLDDGKMAFKTITPLKTVEIHFELGKEYENKRLDGTVVKGIVTRDGNKLIQEQMSEPKFKVIRELDGPEKLIVTWMCKDIVCVREYKRIQT
B2: Chicken FABP7 WT: Wild type chicken (Gallus gallus) FABP7, SEQ ID NO. 74 (protein, listed as Gallus gallus)
chain: MVEAFCATWKLADSHNFDEYMKALGVGFAMRQVGNVTKPTVIISSEGDKVVIRTQSTFKNTEISFKLGEEFDETTPDDRNCKSVVTLDGDKLVHVQKWDGKETNFVREIKDGRMVMTLTFGDVVAVRHYEKA
B3: mdl_r5_0225_ro: Engineered chicken (Gallus gallus) FABP7 variant selected by Rosetta score, SEQ ID NO. 79 (protein, listed as Gallus gallus)
chain: MVEAFCATWKLADSHNMDEALKAWGVGFAIRQVANVTKPTVIISSEGDKVVIRMQSTFKNTEISFKLGEEFDETTADDRNCKSVVTLDGDKLVHVQKWDGKETNVVREIKDGRMVMTVTFGDVVAVRHYEKA
B4: mdl_r5_1652_ro: Rosetta-engineered pig (Sus scrofa) FABP1 variant, SEQ ID NO. 81 (protein, listed as Sus scrofa)
chain: MNFSGKYQVQSQENFEAFMKAVGQPDELIQKGKDIKGTSEIVQNGKHFKVTITTGSKVVQAEFTLGEECEAETDTGEKVKVVVQLEGDNKAVVTAKGIKAVFELNGDIITATATLGDIVFKRISKR
B5: mdl_r3_1403_sm: Engineered chicken (Gallus gallus) FABP7 variant selected by Smina score, SEQ ID NO. 80 (protein, listed as Gallus gallus)
chain: MVEAFCATWKLADSHNQDEGLKALGVGFAMRQLFNVDKPTVIISSEGDKVVIRIEGTVKNTEISFKLGEEFDETTADDRNCKSVVTLDGDKLVHVQKWDGKETNVVREIKDGRMVATFTFGDVVAVAHYEKA

Columns and labels:
cannabinoid receptor = conditions: cited from earlier work
[1] = FABP binding to cannabinoids by ANS displacement (CBD as ligand); conditions: for binding to CBD by ANS displacement: 2 uM protein, 20 uM ANS, 33 uM CBD, decrease in fluorescence vs protein without ligand
[2] = FABP binding to cannabinoids by ANS displacement (THC as ligand); conditions: for binding to THC by ANS displacement: 2 uM protein, 20 uM ANS, 33 uM THC, decrease in fluorescence vs protein without ligand
[3] = listed as Wild type FABP from chicken

Molecule | binding to CBD by ANS displacement [1] | binding to THC by ANS displacement [2] | also measured
C=C(C)[C@@H]1CCC(C)=C[C@H]1c1c(O)cc(CCCCC)cc1O [CBD, cannabidiol] |  |  | affinity for the cannabinoid receptor (cannabinoid receptor): do not have significant affinity
B1 | bind | bind | 
B2 | no, or negligible binding | no, or negligible binding | binding to CBD by ANS displacement [1, 3]: no binding; binding to THC by ANS displacement [2, 3]: no binding
B3 | binding to CBD | not THC | 
B4 |  |  | binding to CBD relative to the wild type based on relative change in fluorescence ([1]; FIG. 7, ANS displacement): improved binding; binding to THC relative to the wild type based on relative change in fluorescence ([2]; FIG. 7, ANS displacement): improved binding
B5 | no binding | no binding | 
